Measured values from the supplement of paper PMC10724198.
± gives the standard deviation of the averaged measurements.

Tests used:
[1] = test system: Saccharomyces cerevisiae; assay: protein stability index of tFT-peptide fusion (C-terminal peptide) (PSI (0-1 scale)); higher = more stable (slower turnover); details: genetic background: wild type; temperature: 30 C
[2] = test system: Saccharomyces cerevisiae; assay: as above
Experimental: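 MPS profiling in S. cerevisiae of the tFT-X12 degron library: putative degron peptides plus stable controls, 12 aa, fused to the C-terminus of a sfGFP-mCherry timer. Cells are FACS-sorted into 8 mCherry/sfGFP bins and deep-sequenced. PSI runs from 0 (unstable) to 1 (stable). Backgrounds are wild type, das1Δ and doa10Δ at 30 °C, and wild type, das1Δ, cdc34-1 and cdc53-1 at 37 °C; 2-3 technical replicates each.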

[3] = genetic background: cdc34-1, temperature: 37 C
[4] = genetic background: cdc53-1, temperature: 37 C
[5] = genetic background: das1 deletion, temperature: 30 C
[6] = genetic background: das1 deletion, temperature: 37 C
[7] = genetic background: doa10 deletion, temperature: 30 C
[8] = genetic background: wild type, temperature: 30 C
[9] = genetic background: wild type, temperature: 37 C
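Further: PSI is a weighted mean of sequencing reads over stability bins, variants kept only with over 10 reads, mCherry proximal and sfGFP distal, peptide attached via GGGS linker.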

Row | Sequence | protein stability index [1] | protein stability index [2, 3] | protein stability index [2, 4] | protein stability index [2, 5] | protein stability index [2, 6] | protein stability index [2, 7] | protein stability index [2, 8] | protein stability index [2, 9]
1 | VIRIRLSCSVDV | 0.367 ± 0.026 | 0.326 ± 0.04 | 0.42 ± 0.047 | 0.323 ± 0.022 | 0.411 ± 0.0063 | 0.313 ± 0.023 | 0.322 ± 0.021 | 0.387 ± 0.013
2 | WLFFVVLPVKAF | 0.231 ± 0.0071 | 0.0666 ± 0.0023 | 0.146 ± 0.02 | 0.178 ± 0.038 | 0.28 ± 0.016 | 0.104 ± 0.023 | 0.131 ± 0.026 | 0.154 ± 0.001
3 | GPGTWLFCFVRF | 0.509 ± 0.027 | 0.504 ± 0.032 | 0.55 ± 0.0069 | 0.432 ± 0.029 | 0.602 ± 0.0065 | 0.475 ± 0.017 | 0.42 ± 0.022 | 0.612 ± 0.031
4 | VFLLLSLSVFFE | 0.1721 ± 0.0014 | 0.0371 ± 0.0054 | 0.0844 ± 0.0086 | 0.138 ± 0.0083 | 0.225 ± 0.0081 | 0.109 ± 0.014 | 0.128 ± 0.043 | 0.142 ± 0.018
5 | ISAVLFFLYLSF | 0.308 ± 0.025 | 0.163 ± 0.008 | 0.108 ± 0.019 | 0.24 ± 0.018 | 0.326 ± 0.0042 | 0.459 ± 0.035 | 0.246 ± 0.017 | 0.272 ± 0.009
6 | FCFVRGLLFLFF | 0.442 ± 0.06 | 0.476 ± 0.0094 | 0.574 ± 0.065 | 0.383 ± 0.035 | 0.5423 ± 0.0025 | 0.386 ± 0.013 | 0.36 ± 0.034 | 0.506 ± 0.023
7 | CFFICGVFVFLM | 0.3651 ± 0.00098 | 0.21 ± 0.07 | 0.338 ± 0.029 | 0.257 ± 0.03 | 0.435 ± 0.014 | 0.229 ± 0.01 | 0.244 ± 0.034 | 0.4088 ± 0.0015
8 | SFYVCVPVLWLV | 0.201 ± 0.0038 | 0.248 ± 0.024 | 0.29 ± 0.036 | 0.27 ± 0.029 | 0.407 ± 0.0054 | 0.136 ± 0.0076 | 0.118 ± 0.015 | 0.146 ± 0.028
9 | DVVRWQRVRNYV | 0.454 ± 0.041 | 0.687 ± 0.024 | 0.7218 ± 0.0072 | 0.632 ± 0.022 | 0.737 ± 0.0088 | 0.2746 ± 0.0021 | 0.3 ± 0.028 | 0.573 ± 0.0059
10 | RSNLSKSWHRIG | 0.207 ± 0.038 | 0.538 ± 0.065 | 0.689 ± 0.014 | 0.645 ± 0.028 | 0.743 ± 0.015 | 0.101 ± 0.011 | 0.11 ± 0.029 | 0.212 ± 0.074
11 | SFAVSSDYLFII | 0.401 ± 0.019 | 0.69 ± 0.099 | 0.788 ± 0.028 | 0.689 ± 0.034 | 0.808 ± 0.032 | 0.316 ± 0.037 | 0.361 ± 0.023 | 0.582 ± 0.01
12 | GIVYFDQWISVS | 0.461 ± 0.052 | 0.546 ± 0.031 | 0.538 ± 0.082 | 0.393 ± 0.022 | 0.571 ± 0.016 | 0.321 ± 0.0069 | 0.347 ± 0.02 | 0.544 ± 0.0084
13 | LSLWLFRILSVR | 0.4439 ± 0.0026 | 0.4052 ± 0.0027 | 0.451 ± 0.017 | 0.335 ± 0.023 | 0.4987 ± 0.0027 | 0.342 ± 0.0045 | 0.341 ± 0.012 | 0.4906 ± 0.0043
